The numbers were not newly measured in publication PMC6540150, which cites them from elsewhere.

The term Kd denotes the constant that tells how readily two partners part at equilibrium.

The target in this data set is SOUL BH3 (Homo sapiens) (UniProt Q9Y5Z4).

For the substance Bcl-xL (from UniProt Q07817), the equilibrium dissociation constant (Kd) was 40 µM.
